In publication PMC10660547 (Antibodies, 2023):
Values belong to the binder of their own block, whether it stands above or below them.

Key:
[1] = target: T1, Phl p 7 (with a C-terminal tryptophan residue, biotinylated) (Phleum pratense (timothy grass), UniProt O82040, biotin (EZ-Link Maleimide-PEG2-Biotin)); test: SPR; biotinylated Phl p 7 immobilised on an SA chip, 50 nM HAPPID1 Fab captured by it, aδNb072 flowed over (200 nM to 3 nM); 25 °C, 10 mM HEPES pH 7.4, 150 mM NaCl, 0.05% P20, 5 mM CaCl2; conditions: both partners purified
T1 construct: Phl p 7, polcalcin family 2-EF hand protein of timothy grass (Phleum pratense) pollen; C-terminal tryptophan residue added to aid spectrophotometric detection; also called biotinylated Phl p 7; timothy grass pollen allergen Phl p 7; source: E. coli BL21(DE3), purified (HisTrap FF Crude, SEC Superdex 75)
T1 sequence (O82040 whole entry, looked up): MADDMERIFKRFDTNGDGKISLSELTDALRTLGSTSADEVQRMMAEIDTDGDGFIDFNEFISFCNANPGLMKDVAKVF

[2] = target: anti-IgD nanobody 072 (not stated (a llama and an alpaca were immunised)); test: SPR; aδNb072 (100 nM) captured by an anti-His-tag antibody on a CM5 chip; Fab flowed over, two-fold dilution series 200 nM to 3 nM; Biacore T200, 25 °C, 10 mM HEPES pH 7.4, 150 mM NaCl, 0.05% P20; KD from koff/kon
anti-IgD nanobody 072 (not stated (a llama and an alpaca were immunised)), sequence (heavy, as listed by the source): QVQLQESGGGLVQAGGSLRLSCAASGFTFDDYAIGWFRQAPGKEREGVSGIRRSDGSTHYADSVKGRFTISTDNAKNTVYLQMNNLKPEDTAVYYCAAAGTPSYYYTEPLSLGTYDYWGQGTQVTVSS

binding result [1]: binds
Kd [2]: 1.4 nM
koff [2]: 0.000822 s⁻¹
kon [2]: 586000 M⁻¹ s⁻¹
B1: HAPPID1 Fab with a C-terminal glycine4-serine linker and SpyTag on the heavy chain (Fab, V domains shown)
VH: QVQLVQSGAEVRNPGASVKVSCKASGYTFTSYAIHWVRQAPGHRLEWVGRINTDNGNTKYSQKFHGRVALSRDTSASTTYMDLSSLNSEDTAVYYCARAFYYSSGVMFDSWGQGALVTVSS
VL: QSALTQPPSVSGAPGQRVSISCTGGSSNFGAGYDVHWYQQLPATAPKLLIYGNNNRPSGVPDRFSGSKSGTSASLAITGLQAEDEGDYFCQSFDTSLSGWIFGGGTKLTVL
notes: as the heavy chain of m2 (VH of clone 102.1F10 with human Cδ1); as the light chain of m2 (lambda light chain of the HAPPI1 antibodies); Derived from pVITRO1-HAPPID1; also called SpyTagged HAPPID1 Fab; not shown: glycine4-serine linker and SpyTag, C-terminal, kept

Kd [2]: 3.64 nM
koff [2]: 0.000829 s⁻¹
kon [2]: 228000 M⁻¹ s⁻¹
B2: HAPPIE1 Fab (SpyTagged) (Fab, V domains shown)
VH: B1 VH
VL: B1 VL
